This passage reports Standardized EC50 ratio value, Treg proliferation rate and NK cell proliferation rate results from patent US20210060169A1.

Test [1] addresses human IL-2Rαβγ (human) (UniProt P01589). Put plainly: cell-based or functional assay.
The target in test [2] is human IL-2Rβγ (human) (UniProt P14784). Put plainly: cell-based or functional assay.

Numbering of substitutions follows the chain as printed. A value given as a limit tells only on which side of the number the result lay.

Sequence of human IL-2Rαβγ (human) (P01589 22-272, chain 1 of 3): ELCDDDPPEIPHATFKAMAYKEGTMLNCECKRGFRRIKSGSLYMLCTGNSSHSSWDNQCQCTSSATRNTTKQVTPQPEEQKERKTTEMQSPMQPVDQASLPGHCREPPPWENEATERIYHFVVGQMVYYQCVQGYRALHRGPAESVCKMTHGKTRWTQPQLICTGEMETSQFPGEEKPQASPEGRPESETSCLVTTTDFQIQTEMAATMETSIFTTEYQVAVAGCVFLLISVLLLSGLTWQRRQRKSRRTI
Sequence of human IL-2Rαβγ (human) (P14784 27-551, chain 2 of 3, further chain): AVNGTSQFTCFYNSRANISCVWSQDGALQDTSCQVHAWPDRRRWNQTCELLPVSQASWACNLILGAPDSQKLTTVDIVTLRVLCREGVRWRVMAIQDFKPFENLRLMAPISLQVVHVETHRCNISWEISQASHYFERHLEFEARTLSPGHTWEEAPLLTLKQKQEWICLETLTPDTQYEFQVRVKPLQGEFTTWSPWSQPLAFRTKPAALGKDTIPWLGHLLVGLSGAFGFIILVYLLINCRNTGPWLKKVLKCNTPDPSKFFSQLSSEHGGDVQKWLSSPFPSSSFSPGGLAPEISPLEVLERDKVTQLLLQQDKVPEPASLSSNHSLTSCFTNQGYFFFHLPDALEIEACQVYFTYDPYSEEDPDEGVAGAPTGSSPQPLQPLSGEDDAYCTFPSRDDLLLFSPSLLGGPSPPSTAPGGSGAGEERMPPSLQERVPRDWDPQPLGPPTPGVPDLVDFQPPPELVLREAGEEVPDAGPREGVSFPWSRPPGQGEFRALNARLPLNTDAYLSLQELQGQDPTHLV
Sequence of human IL-2Rαβγ (human) (P31785 23-369, chain 3 of 3, further chain): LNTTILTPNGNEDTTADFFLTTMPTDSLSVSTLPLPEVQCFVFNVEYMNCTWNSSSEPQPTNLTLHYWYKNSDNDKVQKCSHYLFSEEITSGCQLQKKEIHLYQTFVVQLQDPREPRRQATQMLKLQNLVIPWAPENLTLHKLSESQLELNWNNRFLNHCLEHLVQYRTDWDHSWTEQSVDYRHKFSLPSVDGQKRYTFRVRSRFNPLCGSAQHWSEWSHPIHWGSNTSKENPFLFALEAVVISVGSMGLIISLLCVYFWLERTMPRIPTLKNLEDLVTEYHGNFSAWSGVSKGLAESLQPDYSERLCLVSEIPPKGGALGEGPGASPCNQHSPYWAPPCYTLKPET
Sequence of human IL-2Rβγ (human) (P14784 27-551, chain 1 of 2): as the sequence (P14784 27-551, chain 2 of 3, further chain) above
Sequence of human IL-2Rβγ (human) (P31785 23-369, chain 2 of 2, further chain): as the sequence (P31785 23-369, chain 3 of 3, further chain) above

B1: 8His-S4(oAzZK)-Li30/F78(oAzZK)-Li30 (ligand)
chain: MHHHHHHHHAPTKSSTKKTQLQLEHLLLDLQMILNGINNYKNPKLTRMLTFKFYMPKKATELKHLQCLEEELKPLEEVLNLAQSKNKHLRPRDLISNINVIVLELKGSETTFMCEYADETATIVEFLNRWITFSQSIISTLT
On to B1, for which, in test [1], the Standardized EC50 ratio value is > 30 and the Treg proliferation rate at 650 to 6500 pmol/L was > 80%.

B2: 8His-S4(oAzZK)-Li30/I129(oAzZK)-Li30 (ligand)
chain: B1 chain with K87F, I138K
As for B2, in test [1], the Standardized EC50 ratio value is > 30 and the Treg proliferation rate at 650 to 6500 pmol/L was > 80%. In test [2], the NK cell proliferation rate at 65 nmol/L (proliferation medium) is < 20%.

B3: 8His-S4(oAzZK)-Y50/I129(oAzZK)-Y50 (ligand)
chain: B1 chain with K87F, I138K
As for B3, the Standardized EC50 ratio value in test [1] was > 30.
